In the supplement of paper PMC9112550, “Optimization of the antimicrobial peptide Bac7 by deep mutational scanning” (BMC Biology, 2022):

Test system: Escherichia coli TOP10
Test: shrunken log2 fold change of peptide-encoding DNA abundance (4.5 h post-induction vs induction); higher = less antimicrobial activity (less host growth inhibition)
Details: time post-induction: 4.5 h; library: site-saturation at positions 5, 18, 19, 20
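Further: peptides expressed intracellularly from a pBAD plasmid library in pooled LB shake-flask culture, induced with 0.3% L-arabinose, DNA abundance read by NGS, three biological replicates, DESeq2 with apeglm shrinkage.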

Sequence | shrunken log2 fold change
RRIRVRPPRLPRPRPRPQLWPRP | 0.0627
RRIRERPPRLPRPRPRPDQVPRP | -0.148
RRIRHRPPRLPRPRPRPPTRPRP | 0.429
RRIRLRPPRLPRPRPRPTGCPRP | 0.19
RRIRTRPPRLPRPRPRPVTKPRP | 0.0906
RRIRHRPPRLPRPRPRPLADPRP | 0.26
RRIRWRPPRLPRPRPRPSCVPRP | 0.121
RRIRCRPPRLPRPRPRPTWLPRP | -0.227
RRIRCRPPRLPRPRPRPRNRPRP | 0.239
RRIRLRPPRLPRPRPRPWAPPRP | 1.18
RRIRIRPPRLPRPRPRPGFIPRP | -0.391
RRIRQRPPRLPRPRPRPMRYPRP | 0.0851
RRIRSRPPRLPRPRPRPEGKPRP | 0.0822
RRIRLRPPRLPRPRPRPVIPPRP | -0.0331
RRIRHRPPRLPRPRPRPSTEPRP | -0.168
RRIRCRPPRLPRPRPRPNAHPRP | -0.221
RRIRGRPPRLPRPRPRPGGPPRP | 0.968
RRIRVRPPRLPRPRPRPLIEPRP | 0.103
RRIRYRPPRLPRPRPRPPMGPRP | -0.239
RRIRARPPRLPRPRPRPENHPRP | -0.102
RRIRRRPPRLPRPRPRPLSQPRP | 0.000673
RRIRGRPPRLPRPRPRPMTWPRP | 0.17
RRIRHRPPRLPRPRPRPDRYPRP | -0.236
RRIRLRPPRLPRPRPRPYKGPRP | -0.027
RRIRPRPPRLPRPRPRPEYGPRP | -0.167

Sequence | shrunken log2 fold change
RRIRDRPPRLPRPRPRPNQIPRP | -0.044
RRIRERPPRLPRPRPRPGYSPRP | -0.00468
RRIRHRPPRLPRPRPRPPTDPRP | -0.254
RRIRIRPPRLPRPRPRPLDKPRP | -0.141
RRIRFRPPRLPRPRPRPVKGPRP | -0.178
RRIRWRPPRLPRPRPRPWEVPRP | -0.0113
RRIRLRPPRLPRPRPRPQRHPRP | -0.0803
RRIRFRPPRLPRPRPRPYLKPRP | -1.36
RRIRLRPPRLPRPRPRPYQIPRP | -0.489
RRIRVRPPRLPRPRPRPYFWPRP | -0.395
RRIRNRPPRLPRPRPRPMQYPRP | -0.267
RRIRWRPPRLPRPRPRPAMTPRP | 0.299
RRIRVRPPRLPRPRPRPCVGPRP | 0.00147
RRIRMRPPRLPRPRPRPTQPPRP | 0.176
RRIRNRPPRLPRPRPRPAVEPRP | -0.0887
RRIRERPPRLPRPRPRPHDVPRP | 0.00785
RRIRFRPPRLPRPRPRPWFWPRP | -0.285
RRIRGRPPRLPRPRPRPRMRPRP | 1.38
RRIRQRPPRLPRPRPRPFRTPRP | -0.255
RRIRCRPPRLPRPRPRPFVNPRP | -0.521
RRIRKRPPRLPRPRPRPRKDPRP | 0.222
RRIRYRPPRLPRPRPRPMDWPRP | 0.0155
RRIRWRPPRLPRPRPRPPYGPRP | -0.0783
RRIRKRPPRLPRPRPRPQREPRP | 0.749
RRIRARPPRLPRPRPRPWRMPRP | 0.0537

Sequence | shrunken log2 fold change
RRIRVRPPRLPRPRPRPAHNPRP | -0.296
RRIRPRPPRLPRPRPRPNIQPRP | -0.404
RRIRHRPPRLPRPRPRPTISPRP | -0.495
RRIRARPPRLPRPRPRPHEAPRP | -0.0395
RRIRHRPPRLPRPRPRPWGWPRP | 0.284
RRIRYRPPRLPRPRPRPNQPPRP | -0.0705
RRIRDRPPRLPRPRPRPNANPRP | 0.000903
RRIRDRPPRLPRPRPRPLNMPRP | 0.111
RRIRMRPPRLPRPRPRPYMIPRP | -0.00479
RRIRYRPPRLPRPRPRPGWLPRP | 0.0173
RRIRFRPPRLPRPRPRPERGPRP | 0.0525
RRIRPRPPRLPRPRPRPMEAPRP | 0.177
RRIRERPPRLPRPRPRPWSRPRP | 0.0483
RRIRWRPPRLPRPRPRPEQTPRP | -0.0026
RRIRARPPRLPRPRPRPKGNPRP | 0.0299
RRIRPRPPRLPRPRPRPQVHPRP | -0.0018
RRIRHRPPRLPRPRPRPTFSPRP | -0.22
RRIRPRPPRLPRPRPRPGWRPRP | 0.438
RRIRCRPPRLPRPRPRPTMTPRP | 0.106
RRIRTRPPRLPRPRPRPPMVPRP | 0.152
RRIRWRPPRLPRPRPRPPQKPRP | 0.413
RRIRMRPPRLPRPRPRPKRQPRP | 0.0602
RRIRRRPPRLPRPRPRPQGDPRP | 0.0133
RRIRPRPPRLPRPRPRPQRWPRP | 0.156
RRIRCRPPRLPRPRPRPLSAPRP | 0.00383
